Among the data in US20060228350A1 (AstraZeneca / MedImmune, published 2006) are OD450 and [specific OD450/background OD450] ratio values, retold here.

Assay [1] deals with Human EphA2-Fc fusion protein (human EphA2 fused with the Fc portion of a human IgG1) (human) (UniProt P29317). The assay is described as follows: single point capture ELISA, periplasmic Fab on 500 ng goat anti-human Fab, biotinylated EphA2-Fc 300 ng/well. In general terms: ELISA stands for enzyme-linked immunosorbent assay.
The target is the same in assay [2]. The assay is described as follows: single point capture ELISA, periplasmic extracts from 15 ml culture, 500 ng goat anti-human Fab.

Human EphA2-Fc fusion protein (human EphA2 fused with the Fc portion of a human IgG1) (human), sequence (P29317 24-534 limits assumed): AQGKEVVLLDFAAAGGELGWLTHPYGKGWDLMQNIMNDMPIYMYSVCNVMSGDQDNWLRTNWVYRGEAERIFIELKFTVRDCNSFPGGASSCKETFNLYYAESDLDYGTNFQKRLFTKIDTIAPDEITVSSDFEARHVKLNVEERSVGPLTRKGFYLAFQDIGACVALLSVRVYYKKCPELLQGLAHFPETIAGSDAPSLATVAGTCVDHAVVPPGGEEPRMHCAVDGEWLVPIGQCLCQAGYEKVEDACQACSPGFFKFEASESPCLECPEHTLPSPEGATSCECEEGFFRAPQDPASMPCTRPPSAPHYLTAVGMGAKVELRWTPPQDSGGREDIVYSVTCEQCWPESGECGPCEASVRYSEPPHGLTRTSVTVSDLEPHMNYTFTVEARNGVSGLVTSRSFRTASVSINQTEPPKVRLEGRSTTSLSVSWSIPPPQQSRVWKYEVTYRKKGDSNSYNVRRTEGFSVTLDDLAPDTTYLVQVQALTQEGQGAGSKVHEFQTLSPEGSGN

B1: VH-2G6/VL-12C8 Fab (framework-shuffled, fully humanized clone from library B) (Fab, from another filing, V domains shown)
VH: EVQLVESGGGVVRPGGSLRLSCAASGFTVSDYSMNWVRQAPGKGLEWIGFIRNKANDYTTEYSASVKGRFTISRDDSKNTLYLQMNSLKTEDTAVYYCTTYPRYHAMDSWGQGTMVTVSS
VL: AIQLTQSPSSLSASVGDRVTITCRASQSISNNLHWYLQKPGQSPQLLIYYVFQSISGVPSRFSGSGSGTDFTLTISSLQPEDFATYYCQQSNSWPLTFGGGTKLEIK
Consider B1, for which the OD450 in assay [1] worked out at 2.8 OD450. Further, in assay [2], the [specific OD450/background OD450] ratio was 40.
